Experimental findings from US7858745B2, “Use of specifically engineered enzymes to enhance the efficacy of prodrugs” (The Board of Trustees of the University of Illinois, priority 2003, dated 2010) are described below.

The test system of data set [1] is Nc1ccn([C@@H]2O[C@H](CO)[C@@H](O)C2(F)F)c(=O)n1. As to the kind of experiment: purified protein, by the assay type. The conditions noted are these: other: nucleoside as substrate, pH 7.5.
For data set [2], the system named is Nc1ccn([C@H]2CC[C@@H](CO)O2)c(=O)n1. As to the kind of experiment: purified protein, by the assay type. The conditions noted are these: other: nucleoside as substrate, dCK 0.4 μM, ATP•Mg 1 mM, 37° C., pH 7.5.
Where [3] appears, read: dCK 0.4 μM, ATP•Mg 1 mM, 37° C.

Chain of Wild Type dCK (Homo sapiens) (chain, as listed by the source): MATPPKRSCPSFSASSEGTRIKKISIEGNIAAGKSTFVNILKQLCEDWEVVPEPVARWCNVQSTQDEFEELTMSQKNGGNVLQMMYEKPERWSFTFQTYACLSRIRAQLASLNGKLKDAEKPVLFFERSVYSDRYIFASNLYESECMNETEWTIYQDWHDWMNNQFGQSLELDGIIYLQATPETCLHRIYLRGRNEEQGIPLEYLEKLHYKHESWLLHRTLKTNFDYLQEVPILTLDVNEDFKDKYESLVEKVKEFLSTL
Chain of A100V/R104M/D133A-dCK (Homo sapiens; A100V/D133A/R104M) (chain, as listed by the source A100V R104M D133A A100V D133A R104M): as the sequence (chain, as listed by the source) above, with A100V, R104M, D133A counted along it

Regarding “A100V/R104M/D133A-dCK (Homo sapiens; A100V/D133A/R104M)”, in data set [1] (triple mutant, 37.0 °C), the Km – broadly, the substrate concentration at which the rate is half of its maximum – worked out at 50 µM; the kcat (in general, the number of substrate molecules converted per active site and unit of time at saturation) is 3.52 s⁻¹; the kcat/Km – broadly, the second-order rate constant that governs catalysis at low substrate concentration – turned out to be 70400 M⁻¹ s⁻¹.

Turning to Wild Type dCK (Homo sapiens), in data set [2], the Km stood at 406.8 µM, the kcat stood at 0.18 s⁻¹ and the kcat/Km is 400 M⁻¹ s⁻¹. For the same substance, in data set [1] (setting [3]), the Km was 22.0 µM, the kcat was 0.37 s⁻¹ and the kcat/Km worked out at 16800 M⁻¹ s⁻¹.
